{"source": "paper doi:10.1101/2022.01.06.475303", "biological_target": "SARS-CoV-2 receptor binding domain (RBD), Wuhan-1 (SARS-CoV-2 Wuhan-Hu-1) (UniProt P0DTC2)", "data": [{"substance": "CC6.33 IgG (antibody)", "values": [{"measurement": "neutralization IC50 against pseudotyped SARS-CoV-2 (Hela-hACE2 cells)", "value": 0.228, "unit": "µg/mL"}]}]}
